Source: the DeepSol protein solubility set

Test: soluble on expression in E. coli; label from the status in PepcDB or PDB records

| Sequence | soluble on expression in E. coli |
| --- | --- |
| MLNSEKMIASLDQQDLAHAEKYFQKALKEDDADSLIALGEYLESIGFLPHAKRIYLQLADDYPELNINLAQIAAEDDAIEEAFLYLDKVSKDSPNYLSALLVMADLYDMEGLTEVAREKLLQAVGISPEPLVIFGLAEIDMSLQHFKEAIDYYAQLDNRQILELTGISTYQRIGRAYASLGKFEAAIEFLEKAVAIEYEDETVFELATLMYDQENYQKANLYFKQLETINPDYPGYEYGYALSLHEEHKTSEALRLVQQGLRKNAFDSQLLLLASQLSYELHDRQNAENYLLQAKEVAVDDEEILMRLVTLYFDAERFEEVIALNRETIDNVLTKWTIAKAYHALEQEEVALALYNEISADLAENPEFLQDYAYLLREFGQFHKAIQMATAYLRQVPDDVNMQDFLDHIKHQQSE | not soluble |
| MLPDPPRDPFNNLDPAQTVRVLPRHLAGPGQADLETIWAFPFDDGWHLHQGLEGMVFAISPCARLWTRFAPKPEERGADTWTIGMDRAPFGPRAWEITFDATTPAELLRDVHTELLDLYLEDRHSEKNHLVEDPTAPHEVYTPLLTHGWSHSVKTDGTQTFLPPEGLGGVRHRYATTGSDGPVWRAWGGYPSAPHWQAQFSAGAPTTLAAAFTASLISTEPLHRAVKQIPFHTRRHLYVAPAAAPQPPSHLPPAPPSAPHPAGRARLEHHHHHH | soluble |
| MLPETTTLQPLPSVTTIMNEPPARSPMEDYYLFNQFQYNQNPYVYPPQPVYYNTWQDASTHHFDPFQSYQIPSPYEQPIQSSMCTTPLQPLEDSRIIFDESLTKNENEQKSFVEQDSSYESSGNRFGSQKGKKIAKVIRDACCSHCSTTTTTLWRKNDEGNLECNACNLYYRHNKVKRPLSLCKQKPTTRKRRQAKKE | not soluble |
| MLPIIYSLRNCPYAMRARLAIFKAKQAVLLRDLVLSHKPAEMIAVSPKGTVPVLVLANSTVIEESLEVMLWALQQTDPDDLLHCQQEGALPEMLSLINEFDNGFKTSLEAYKCAKRYQEDNIAQCRVVCQQYIEQLEQRLTEHMFLMSDKESLADIALVPFIRQFARVERQWYLQSPYPRVRRWLNSYLQSPVFTKVMAKHPLWLDNQQDILFGVN | not soluble |
| MLPPYNYMDNGTLKGISIDLLEAITEKMGKKVTREEIHLVSWTEGYQAALTRNNTVLFVTARTPEREQSFKWVGPIYSDKYVLFAKRDPGVTIDGPEDLKEYRIGVISDDVAAQQLLNIGVNQSQLEHHHHHH | not soluble |
| MLPTILALLLAPLATALPPTIIRSPKVTGWGWWSEMESCPPGYFAHGMRIKYERDSGSLDETGLNAIELACKNRAVPSSGDTYIKGAEGVFGGWQAYQYCPQGEYVIGFALQSESWRGGNKDDVAANNFAAYCGRPEAPRRRYSWIQGSVNERGSWTRDQFCPARQIVCGIIVQIEPAQAPHVDDASLDSVGLKCCDF | not soluble |
| MLQIIVPMAGAGSRFAVAGYTDPKPLIPVHGVPMIKVVIDNLTPDCPHRFIFICQAEQVAAYGLREKLNAWAPGCGIVELGGLTGGAACTVYAARHLINYDQQVMIANSDQYVDVDINAYLHAMNECDAAGLIMTMKASDPKWSFVGFDSQGHINRVVEKEVISDEATVGIYNFRSGGQLVSAIEAMVLKDLRVNGEFYVAPAYNELIEQGAKVIHYSIGAEGHGMYGLGIPVDLNLFLSLPLSRQAASGVGNLEHHHHHH | not soluble |
| MLRHNVPVRRDLDQIAANNGFDFHIIDNEIYWDESRAYRFTLRQIEEQIEKPTAELHQMCLEVVDRAVKDEEILTQLAIPPLYWDVIAESWRARDPSLYGRMDFAWCGNAPVKLLEYNADTPTSLYESAYFQWLWLEDARRSGIIPRDADQYNAIQERLISRFSELYSRELFYFCCCQDTDEDRSTVLYLQDCAQQAGQESRFIYIEDLGLGVGGVLTDLDDNVIQRAFKLYPLEWMMRDDNGPLLRKRREQWVEPLWKSILSNKGLMPLLWRFFPGHPNLLASWFEGEKSQIAAGESYVRKPIYSREGGNVTIFDGQNNVVDHADGDYADEPMIYQAFQPLPRFGDSYTLIGSWIVDDEACGMGIREDNTLITKDTSRFVPHYIAG | not soluble |
| MLRHSRHNAVFILDTAGIIMGISEGAQRSYGYTHKDVHGKYFDMLFTEESRKQQKPELELAKVLQYGTAADYNEFVHKDGRHIWTEGESLLITDVWGDSFIIKNVHSLDKEKEEQRNLQQQNEKLLRINNDLDTFVYTASHDLKNPVSNIESLVSIMQYELKHGADAEAVEPVMSRITEALNRFKTTLNELTEISRIDAPVDTDEMYVSFDSILQEVMYDVQDLVDSTEASIQSDFSAATMVRFSKKNVRSILFNLLSNALKYRSPERKPEIYIETKPAGEYILLSVRDNGIGIEPAQHKKVFQFFKRLHTHVQGTGVGMGIVKKIMDNTGGKITLESIPGKGSAFTVHFKQ | not soluble |
| MLRPLSKTDCPMLQEINAKALGYLVSLDLLERQYERLIEDCHHYFLAYADKDTNQLLGYVHAERYETLYASDGLNLLGLAVLPAYQRRGIGSALLRALESQARQEGIAFIRLNSASHRKEAHAFYRNLDYADDKTQLRFIKNLQGDDNDF | not soluble |
| MLRSLLIRATAPAVCAGLLWTAAPAHAQSPAPTRPVSSDTWADRATGTYRALQKHLYEGPGDHGLYLEHTPRQATDQEHSYLWPFREAAQAAVDMQRLPRTGPAYRQDAAERFDTAELYHTGGERPGYRSYLPAPLGTGGDVYYDDNAVVALSQLDQYEETGDARYLRRAEQVVPVVSRAWDGDAAKACPGGMDWYDAPGNTIRATNVTALSAQLAARLYEHTRNRAYLDKAEQWYGWVYACMRKAPGLYVNDRGDDGSTNETLWTYNSGAMIGTATALYRGTGDARYLEKAVADARGSLAYWTGGTRLHDQPAVFNAFYFKDLLDLDAVRPDSAYLSAMSAYADNTYRSNRDASSGLFRFQPSNGGDYDPAAPAATLNQSAMVQIFATLADATRRDHRTSLEHHHHHH | not soluble |
| MLRTPNNRHKIDSILVLGTAQYDGVPSRQFAARLRHAAKLWRLHEIQHVYTVGGKLPGDRFTEAEVAREYLIKEGVDPDLIFVSAVGNDTVSSYEALDPEKLGRVLIVTDPNHSYRAVRIARRMGFDAKPSPTTYSPAKFPSIVYFLTLSHEWGGVVVQDVSRLLGERVADKVEASLRAIQGLLRPSRRARHEQLRRLKKLEHHHHHH | soluble |
| MLSEASSVQSPTVSIRRRTCVVCGSSTLNSYVTSFTRVPDKQEQWVTVLANGDAGFEDQLKASLATGRKYICYDHFDRQYFAQRKTDDGFELIRNRNPMAFKNATFIRHVDLRSTSSFVPDDSSEEPIPAKRLKIMSDLKGRGGELDPNSMTFLMKTIFLHVKKTMEEADEARRKHEIKEELD | not soluble |
| MLSFRNWWAREDSNPRPPGYEPGALPTELRAHTAIRLYSNKTPLSRSVISMKKDPIKEMLVKYPRILVIKAALKILKDGNKIDRERIEKTIVKIMTKKEG | not soluble |
| MLSFVKELNFEINQKKYFIKIYLQPRIKYIKIKIINHQIVCLINHLKLINIAEEFIKNNKLKILKIYENDLKKIKYDEQSLDWIILLGIKFTTIKIKNNNFHCQFNFQKQIIYLYDQNQNLTNTKLLYQKILIYLAEIIFPQIIKNAQNITTLTVKKYVFGFYKSQWGVYNKIKHTIGLSYFLVHYDQDIINYVVIHELAHIKYQHHQKSFWDFVLKYCKNAKIYNNQLKFLEHHHHHH | soluble |
| MLSIKHLTKIYSGNKKAVDDISLDIQSGEFIAFIGTSGSGKTTALRMINRMIEATEGQIEIDGKDVRSMNPVELRRNIGYVIQQIGLMPHMTIKENIVLVPKLLKWTKEEKDKRAKELIKLVDLPESFLERYPAELSGGQQQRIGVVRALAAEQDIILMDEPFGALDPITRDTLQDLVKTLQRKLGKTFIFVTHDMDEAIKLADKICIMSEGKVVQFDTPDNILRHPANDFVRDFIGQNRLIQDRPNDKTVEGVMIKPITIQAEATLNDAVHIMRQKRVDTIFVVDSNNHLLGFLDIEDINQGIRGHKSLRDTMQQHIYTVQIDSKLQDSVRTILKRNVRNVPVVDDQQRLVGLITRANVVDIVYDTIWGDSEDTVQTEHVGEDTASSKVHEQHTTNVKVRDIGDDKS | not soluble |
| MLSIKQLSYALAVSKTLHFRKAADLCHVRQSTLSTGVSELERQLGIKIFERDNKKVLVTPLGREVLDKASNIMLQLEDMAHLDHSCGEP | not soluble |
